Assays:
[1] = target: recombinant soluble homotrimeric HA, A/common magpie/Hong Kong/5052/07 (H5N1) (influenza A virus A/common magpie/Hong Kong/5052/2007 (H5N1)); assay: microarray, trimeric HA, transfection supernatant; details: remark: other sources report otherwise
[2] = target: recombinant soluble homotrimeric HA of A/common magpie/Hong Kong/5052/07 (H5N1) (Influenza A virus A/common magpie/Hong Kong/5052/2007 (H5N1)); assay: HA microarray, BCC supernatant; details: remark: other sources report otherwise

| Binder | Trimeric HA Binding RLU [1] [RLU] | Trimeric HA Binding RLU [2] [RLU] |
| --- | --- | --- |
| TCN-542 (5079_A16) (antibody, V domains shown) VH: QVQLQESGPGLVKPSQTLSLTCTVSGGSISSGNYYWNWVRQHPGKGLEWIGYIYYRGSTFYNPSLKSRVTISIDTSKNQFSLRLSSVTAADTAVYYCAKDTRSSLDNYQYGMDVWGQGTTVTVSS VL: QTVVTQEPSLTVSPGGTVTLTCASSTGAVTSSYFPNWFQQKPGQAPRPLIYSTTIRHSWTPARFSGSLLGGKAALTLSGVQPEDEADYYCLLYSGGDPVAFGGGTKLTVL | 1670 | – |
| TCN-545 (5082_I15) (antibody, V domains shown) VH: QVQLQQWGAGLLKPSETLSLSCAVFGGSFSDYYWTWIRQPPGKGLEWIGEIKHSGRTNYNPSLESRVTISVDTSKNQFSLKLSSVTAADTAIYYCARGTDPDTEGYCRSGSCSAFDFWGQGTLVTVSS VL: EIVLTQSPGTLSLSPGERATLSCRASHFVNYRSLAWYQQTPGQVPRLLIYGASTRATGIPDRFSGSGSGTDFTLTISRLEPEDFAVYFCQQYGGSPRYTFGQGTRLEIK | 1390 | – |
| TCN-521 (3280_D18) (antibody, V domains shown) VH: EVQLVQSGGGLVQPGGSLRLACVVSGFTVTSNYITWVRQAPGKGLEWVSVIYSHGRAYYSASVNGRFTISRHTSKNTVYLEMNSLRPEDTAVYYCAGGGLVGGYDEYFFDYWGQGTLATVSS VL: ETVLTQSPGTLSLTPGERATLSCRVGQSVSGSHLAWYQQKPGQAPRLLIYGASSRATGIPDRFGGSVSGTDFTLTISRLEPEDSAVYYCQQYGDSRYTFGQGTKLEIK | – | 13500 |
| TCN-533 (5256_A17) (antibody, V domains shown) VH: QVQLVQSGADVKKPGSSVTVSCKASGGSFSNYGINWVRQAPGQGLEWMGGIIPLINAPNYAPKFQGRVTITADMFSNIVSLQLTSLRTDDTAVYYCARRKMTTAIDYWGQGTLVTVSS VL: QPVLSQPPSASASLGASVTLTCTLSSGFDNYQVAWYQQRPGKGPRFVMRVGNGGNVASKGDGIPDRFSVSGSGLNRYLTIKNIQEDDESDYYCGADHGSGNNFVSPYVFGGGTKLTVL | – | 44500 |
| TCN-535 (5246_P19) (antibody, V domains shown) VH: QVQLVQSGSEVKKPGTSVKVSCTASGSVFTNYGISWVRQAPGQGLEWMGGIIPLFGAAKYAQKFQGRVTITADESTKTVYMELSRLTSKDTAIYFCAKAPRVYEYYFDQWGQGTPVTVSS VL: EIVLTQSPGTLSLSPGERATLSCRASQSVSSSQLAWYQQKPGQAPRLIIYGASTRATGIPDRFSGSGSGTDFTLTIGRLEPEDFAVFFCQQYSTSPPTFGQGTKVDFK | 477 | 45900 |
| TCN-551 (5243_D01) (antibody, V domains shown) VH: EVQLVQSGSEVKKPGESLKISCKGSGYSFSNYWIGWVRHMPGKGLEWMGIIYPGDSDTRYSPSFQGQVTMSADKSSSTVYLQWSSLKASDTAIYYCARRGGHSFGYGSGGDTHSEFDSWGQGTLVTVSS VL: QSVLTQSPSVSAAPGQKVTISCSGSDSNIGDYFVCWYQHLPGKPPQLLIYENNKRPSGIPDRFSGSKSGTSATLGITGIQTGDEADYYCATWDGSLSAWVFGGGTKLTVL | – | 45700 |
| TCN-557 (5081_A04) (antibody, V domains shown) VH: QVQLVQSGAEVKKPGASVKVSCKASGHTFTGYYIHWVRQAPGQGLEWMGWINPDSGATSSAQNFQGRVTMTGDTSSSTAYMELSRLSFDDTAVYYCARVLFTSPFDFWGEGTLVTVSS VL: QAVVTQEPSLAVSPGGTVTLTCGSSTGAVTRGHYPYWFQQKPGQAPRALIYDSAGNRHSWTPARFSGSLLGGKAALTLSGAQPEDEAEYYCLLSYSGVWVFGGGTKLTVL | 54900 | – |
| TCN-553 (5261_C18) (antibody, V domains shown) VH: QVQVVQSGTEVKKPGSSVKVSCQTSGGRFMSYAITWVRQAPGQGLEWMGGIVPVFGTANYAQKFQGRVTITTDDSTRTAYMELSSLRSEDTAVYYCGFRYGSGYGFDSWGQGTLVTVSS VL: EIVLTQSPGTLSLSPGERATLSCRASQSVSSSYLAWYQKKPGQAPRLLIYGASTRATGIPDRFTGSGSGTDFTLSISRLEPEDFAVYYCQHFGTSVFTFGGGTKVEIK | 39200 | 26000 |
| TCN-540 (5060_F05) (antibody, V domains shown) VH: QVQLVQSGGGVVQPGRSLRLSCAASGFTFSSYAMHWVRQAPGKGLEWVAIISYDGNDQYYTDSVKGRFTISRDSSKVYLQMHRLRPEDTAVYYCAKEFETSGYFHGSFDYWGQGILVTVSS VL: QSALTQPASVSGSPGQSITISCTGTSSDVGGYNYVSWYQQHPGKAPKLLIYEVTNWPSGVSNRFSGSKSGNTASLTISGLQAEDEADYYCSSYAGSSTWVFGGGTRVTVL | 1800 | 113 |
| TCN-523 (5248_A17) (antibody, V domains shown) VH: QVQLVQSGAEVKKPGSSVKVSCKASGGSFSNYAFSWVRQAPGQGLEWMGGTIPLLGTTNYAQKFQGRVTISADQFTSTAYMELGSLRSEDTAVYYCTRRKMTTAFDSWGQGTLVTVSS VL: QPVLTQPPSASASLGASVTLTCTLSSAYSNYKVDWYQQRPGKGPRFVMRVGTGGIVGSKGDGIPDRFSVLGSGLNRYLTIKNIQEEDESDYHCGADHGSGSNFVSPYVFGGGTKLTVL | – | 45800 |
| TCN-550 (5096_F06) (antibody, V domains shown) VH: QVQLQESGPGLVKPSETLSLTCTVSGASINSHYWSWIRQPPGKGLEWIGYVYYSGSTTYNPSLKSRVTLSVDTSKNQFSLNLSSVTAADTAFYYCARHPYDVLTGSGDWFDPWGQGTLVTVSS VL: SYVLTQAPSVSVAPGQTARITCGGNAIGSKKVHWYQHKAGQAPVLVVYDDTDRPSGIPERFSGSNSWSTATLTINRVEAGDEADYYCQVWDFTIDHVVFGGGTKLTVL | 993 | – |
| TCN-538 (3206_O17) (antibody, V domains shown) VH: QITLKESGPTLVKPTQTLTLTCVFSGFSLSITGVRVGWIRQPPGKALEWLALISWDDEKHYSPSLQSRLTITKDTSKNQVVLTMTNLDPVDTATYYCARSTDRGHVLRYFGWMLPGDAFDVWGQGTMVTVSS VL: DIVMTQSPDFLPVSLGERATINCKSSQRVLYSSNNKNYLAWYQLKPGQPPKLIIYWASTRESGVPDRFSGSGSGTEFTLTISSLQAEDVAVYYCQQYYSRPYTFGQGTKLEIK | 3140 | 18700 |
| TCN-534 (5249_B02) (antibody, V domains shown) VH: QVQLVQSGAEVKKPGSSVKVSCRESGGTFNGYTITWVRQAPGQGLEWMGGIIPMMGTVNYAQKLQGRVTITTDYFTKTAYMDLNNLRSEDTAMYYCVKIRYTGQQLLWGQGTLVTVSS VL: DIQMTQSPSTLSASIGDRVTITCRASQSIASWLAWYQQKPGKAPKLLIYEAVNLESGVPSRFSGSGSGTDFTLTISSLQPDDFATYFCQHYGTISQTFGGGTKVEIK | – | 32500 |
| TCN-552 (5249_I23) (antibody, V domains shown) VH: QVQVVQSGAEVKKPGSSVRVSCQASGGTFMNYAIIWVRRAPGQGLEWMGGIIPVFPTPNYAQMFQGRVTISTDESRSTSFLELTNLRYEDTAVYYCARRIYHGGNSGFDFWGQGTLVTVSS VL: EIVLTQSPATLSLSPGERATLSCRASQSVGNYLAWYQQKPGQAPRLLIYDSSNRAPGIPARFSGSGSGTDFTLTISSLAPEDFAVYYCQQRSKWPPMYSFGHGTKLEIK | 34600 | 42200 |
| TCN-543 (5081_G23) (antibody, V domains shown) VH: QVHLVQSGAEVRKPGDSVKVSCKTSGYTFSTYPVAWVRQVPGQGLEWMGWISTYNGNTNFAQNFQGRVTLTTDTTTNTAYMEVRSLKFDDTAVYYCARVEGSYRDFWNNQNRFDPWGQGTLVTVSS VL: SYVLTQPPSVSVAPGQTARISCGGSNIGGKSVHWYQQKPGQAPVLVVYDDSGRPSGIPERFSGSNSGDTATLTISRVEAGDEADYFCQVWDNFGGVFGTGTKVTVL | 1070 | – |
| TCN-555 (5246_L16) (antibody, V domains shown) VH: QVQLVQSGAEVKRPGSSVKVSCTASGGIFRKNAISWVRQAPGQGLEWMGGIIAVFNTANYAQKFQNRVKITADESGNTAYMELSSLTSDDTAVYYCASHPKYFYGSGSYPDFWGQGTLVTVSS VL: QSALTQPRSVSGSPGQSITISCTGGSSDIGASNSVSWYQQHPGKAPKLVIFDVTERPSGVPHRFSGSKSGNTASLTVSGLQPDDEADYFCCAYGGKYLVVFGGGTKVTVL | 33600 | 16100 |
| TCN-563 (5237_B21) (antibody, V domains shown) VH: QVQLAQSGAEVKRPGSSVKVSCTASGGIFRKNAISWVRQAPGQGLEWMGGIIAVFNTANYAQKFQGRVKITADESGNTAYMELSSLRSDDTAVYYCASHPKYFYGSGSYPDFWGQGTLVTVSS VL: QSALTQPRSVSGSPGQSVTISCTGSSSDVGASNSVSWYQQHPGKAPKLVIYDVTERPSGVPHRFSGSKSGNTASLTVSGLQPEDEADYFCCAYGGKYLVVFGGGTKVTVL | – | 27500 |
| TCN-530 (5248_H10a) (antibody, V domains shown) VH: QVQLVQSGAEVRKPGSSVKVSCKASGGPFMSYAIGWVRQAPGQGLEWMGGINPVFGRPHYAQKFQGRVTIATDDSTKTSYMELSSLTSEDTGMYYCASRYSRSSPGTFESWGQGTLVTVSS VL: EIVMTQFPATLSVSPGERVTLSCRASQSVSNNLAWYQQKPGQPPRLLIYDASTRATGVPAKFSGTGSGTEFTLSISSLQSEDFAVYYCQQYHNWPPSYSFGLGTKLEIK | – | 42500 |
| TCN-537 (3194_D21) (antibody, V domains shown) VH: QVQLQQWGSGLLKPSETLSLTCAVYGGSFRDDYWTWIRQPPGKGLEWIGEINHSGRTNYNPSLKSRVTISVDTSLKQFSLKVISVTAADTAVYYCARGTSHVSRYFDWLPPTNWFDPWGQGTQVTVSS VL: DIVLTQSPGTLSLSPGERATLSCRASQSVSSSYLAWYQQKPGQAPRLVMYGAATRATGIPDRFSGSGSGPDFTLTISRLEPEDFAMYYCQQYGNSPITFGQGTRLEIK | 2070 | 18700 |
| TCN-546 (5089_L08) (antibody, V domains shown) VH: QVQLQQWGAGLLKPSETLSLTCGVYGGSLSDYYWSWIRQPPGKGLEWIGEINHSGGTNYNPSLKRRVTISVDTSKKQFSLKMNSVTAADTAVYYCARGTDPDTEVYCRAGNCAAFDFWGQGTLVTVSS VL: EIVLTQSPGTLSLSPGERATLSCRASHFVIGRAVAWYQQKPGQAPRLLIYGASSRATGIPDRFSGSGSGTDFTLTISRLETEDFAVFYCQHYGSSPRYAFGQGTKLEIK | 1920 | – |
